Data taken from US20110098217A1 (INDIANA UNIVERSITY RESEARCH AND TECHNOLOGY, published 2011).
Like-named read-outs stand apart in the source and are kept apart here. Numbered stars: 1 amine (or outer) side, 2 acyl side, 3 side chain; on linkers, the order of the positions; unused ones are H or OH. Bridge positions count the residues as written; N and C are the ends. Square brackets hold non-standard residues; d marks the D form. Primed or numbered codes have the meaning given here. Side chains are listed from the residue outwards. Ends that are not written are not given here. CSA‑2 = Cys(S-CH2CH2COOH), S-(2-carboxyethyl)-L-cysteine, O=C([C@H](CSCCC(=O)[*:3])N[*:1])[*:2]; CSA‑1 = Cys(S-CH2COOH), S-carboxymethyl-L-cysteine, O=C([C@H](CSCC(=O)[*:3])N[*:1])[*:2]; Glu = Glu spacer between Lys side chain and the C16 fatty acid (EC16FA); PEG 20 kDa″ = 20 kDa polyethylene glycol (PEG); PEG 20 kDa = 20 kDa polyethylene glycol; PhLac = O=C(O)[C@@H](O)Cc1ccccc1; Aad = N[C@@H](CCCC(=O)O)C(=O)O; Mpa = O=C(O)CCS

What was measured:
[1] = biological target: T1, human glucagon receptor (human, UniProt P47871 26-477); experiment: cell-based or functional assay
T1 sequence (P47871 26-477): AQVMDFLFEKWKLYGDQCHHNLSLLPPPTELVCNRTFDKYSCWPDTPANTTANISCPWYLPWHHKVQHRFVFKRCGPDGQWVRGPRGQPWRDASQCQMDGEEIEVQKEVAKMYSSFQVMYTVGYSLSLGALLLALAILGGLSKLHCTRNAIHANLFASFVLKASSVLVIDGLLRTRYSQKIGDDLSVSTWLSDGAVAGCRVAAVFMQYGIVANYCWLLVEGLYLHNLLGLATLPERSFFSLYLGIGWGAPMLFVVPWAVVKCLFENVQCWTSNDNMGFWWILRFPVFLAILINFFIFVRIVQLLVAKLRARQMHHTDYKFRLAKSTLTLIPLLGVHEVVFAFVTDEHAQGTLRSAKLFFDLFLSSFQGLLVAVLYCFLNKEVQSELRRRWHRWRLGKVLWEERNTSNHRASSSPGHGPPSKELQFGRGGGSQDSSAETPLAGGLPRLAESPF

[2] = biological target: T2, human GLP-1 receptor (human, UniProt P43220 24-463); experiment: cell-based or functional assay
[3] = biological target: T1, human glucagon receptor; experiment: cell-based or functional assay; remark: listed apart in the source
[4] = biological target: T1, human glucagon receptor; experiment: cell-based or functional assay; remark: listed apart in the source
[5] = biological target: T1, human glucagon receptor; experiment: SPA competition vs 125I-glucagon, receptor membranes
[6] = biological target: T1, human glucagon receptor; experiment: as above; remark: listed apart in the source
[7] = biological target: T1, human glucagon receptor; experiment: cell-based or functional assay; remark: listed apart in the source
[8] = biological target: T2, human GLP-1 receptor; experiment: cell-based or functional assay; remark: listed apart in the source
[9] = biological target: T1, human glucagon receptor; experiment: cell-based or functional assay; remark: listed apart in the source
[10] = biological target: T2, human GLP-1 receptor; experiment: cell-based or functional assay; remark: listed apart in the source

Binder: [PhLac]TSDYSKYLDERRAQDFVC(PEG 20 kDa)WLMDT-NH2 (lactam 7-11) [[PLA6, K12E16(lactam), C24(20 kDa), D28]G(6-29)]
- Glucagon antagonism IC50 (inhibit 0.2-0.8 nM glucagon) [1]: 628 nM
- GLP-1 agonism EC50 [2]: 550 to 753 nM

B1: [hGlu^9]Glucagon(aa6-29)-NH2 (peptide)
peptide: FTS[Aad]YSKYLDSRRAQDFVQWLMNT-NH2
modifications: N-terminus assumed
SMILES: CSCC[C@H](NC(=O)[C@H](CC(C)C)NC(=O)[C@H](Cc1c[nH]c2ccccc12)NC(=O)[C@H](CCC(N)=O)NC(=O)[C@@H](NC(=O)[C@H](Cc1ccccc1)NC(=O)[C@H](CC(=O)O)NC(=O)[C@H](CCC(N)=O)NC(=O)[C@H](C)NC(=O)[C@H](CCCNC(=N)N)NC(=O)[C@H](CCCNC(=N)N)NC(=O)[C@H](CO)NC(=O)[C@H](CC(=O)O)NC(=O)[C@H](CC(C)C)NC(=O)[C@H](Cc1ccc(O)cc1)NC(=O)[C@H](CCCCN)NC(=O)[C@H](CO)NC(=O)[C@H](Cc1ccc(O)cc1)NC(=O)[C@H](CCCC(=O)O)NC(=O)[C@H](CO)NC(=O)[C@@H](NC(=O)[C@@H](N)Cc1ccccc1)[C@@H](C)O)C(C)C)C(=O)N[C@@H](CC(N)=O)C(=O)N[C@H](C(N)=O)[C@@H](C)O
notes: also called [hE^9]Glucagon(aa6-29)-NH2; peptide no; 12
- cAMP (I/A)50 inhibition index [3]: 2360
- cAMP pA2 [3]: 6.27
- cAMP IC50 [4]: 472 nM
- cAMP pA2 [4]: 6.27
- IC50 [5]: 163 nM
- IC50 [6]: 163 nM

Binder: [PhLac]TSDYSKYLDERRAKDFVK([Glu-C16 fatty acid])WLMDT-NH2 (lactam 11-15) [[PLA6, E16K20(lactam), K24(EC16FA), D28]G(6-29)]
- Glucagon antagonism IC50 (inhibit 0.4 nM glucagon) [7]: 372 nM
- GLP-1 agonism EC50 [8]: 293 nM

B2: [(CSA-2)^9]Glucagon(aa6-29)-NH2 (peptide)
peptide: FTS[CSA‑2]YSKYLDSRRAQDFVQWLMNT-NH2
modifications: N-terminus assumed
SMILES: CSCC[C@H](NC(=O)[C@H](CC(C)C)NC(=O)[C@H](Cc1c[nH]c2ccccc12)NC(=O)[C@H](CCC(N)=O)NC(=O)[C@@H](NC(=O)[C@H](Cc1ccccc1)NC(=O)[C@H](CC(=O)O)NC(=O)[C@H](CCC(N)=O)NC(=O)[C@H](C)NC(=O)[C@H](CCCNC(=N)N)NC(=O)[C@H](CCCNC(=N)N)NC(=O)[C@H](CO)NC(=O)[C@H](CC(=O)O)NC(=O)[C@H](CC(C)C)NC(=O)[C@H](Cc1ccc(O)cc1)NC(=O)[C@H](CCCCN)NC(=O)[C@H](CO)NC(=O)[C@H](Cc1ccc(O)cc1)NC(=O)[C@H](CSCCC(=O)O)NC(=O)[C@H](CO)NC(=O)[C@@H](NC(=O)[C@@H](N)Cc1ccccc1)[C@@H](C)O)C(C)C)C(=O)N[C@@H](CC(N)=O)C(=O)N[C@H](C(N)=O)[C@@H](C)O
notes: also called [C^9(SCH2CH2COOH)]Glucagon (aa6-29)-NH2; peptide no; 14
- cAMP (I/A)50 inhibition index [3]: 580
- cAMP pA2 [3]: 6.64
- cAMP IC50 [4]: 116 nM
- cAMP pA2 [4]: 6.64
- IC50 [5]: 146 nM
- IC50 [6]: 146 nM

Binder: [PhLac]TSDYSKYLDERRAKDFVQWLMDTGPGPGPGPGPC(PEG 20 kDa″)-NH2 (lactam 11-15) [[PLA6, E16K20(Lactam),D28,GP-C40(20 kDa)]G(6-40)]
- Glucagon antagonism IC50 (inhibit 0.2-0.8 nM glucagon) [1]: 423 nM
- GLP-1 agonism EC50 [2]: 43.6 nM

Binder: [PhLac]TSDYSKYLDERRAKDFVQWLMDGGPSSGAPPPSC(PEG 20 kDa″)-NH2 (lactam 11-15) [[PLA6, E16K20(Lactam),D28,G29, CEX-C40(20 kDa)]G(6-40)]
- Glucagon antagonism IC50 (inhibit 0.2-0.8 nM glucagon) [1]: 335 nM
- GLP-1 agonism EC50 [2]: 180 nM

Binder: [PhLac]TSDYSKYLDERRAKDFVQWLMDTGPSSGAPPPSC(PEG 20 kDa″)-NH2 (lactam 11-15) [[PLA6, E16K20(Lactam), D28,CEX-C40(20 kDa)]G(6-40)]
- Glucagon antagonism IC50 (inhibit 0.2-0.8 nM glucagon) [1]: 350 to 500 nM
- GLP-1 agonism EC50 [2]: 75 to 100 nM

B3: [H1A2E3, E9, E16K20(Lactam), GLP(23-32)]G(1-29) (peptide)
peptide: HAEGTFTSEYSKYLDEQAAKEFIAWLMDT-NH2
modifications: lactam 16-20; N-terminus assumed
SMILES: CC[C@H](C)[C@H](NC(=O)[C@H](Cc1ccccc1)NC(=O)[C@H](CCC(=O)O)NC(=O)[C@@H]1CCCCNC(=O)CC[C@H](NC(=O)[C@H](CC(=O)O)NC(=O)[C@H](CC(C)C)NC(=O)[C@H](Cc2ccc(O)cc2)NC(=O)[C@H](CCCCN)NC(=O)[C@H](CO)NC(=O)[C@H](Cc2ccc(O)cc2)NC(=O)[C@H](CCC(=O)O)NC(=O)[C@H](CO)NC(=O)[C@@H](NC(=O)[C@H](Cc2ccccc2)NC(=O)[C@@H](NC(=O)CNC(=O)[C@H](CCC(=O)O)NC(=O)[C@H](C)NC(=O)[C@@H](N)Cc2c[nH]cn2)[C@@H](C)O)[C@@H](C)O)C(=O)N[C@@H](CCC(N)=O)C(=O)N[C@@H](C)C(=O)N[C@@H](C)C(=O)N1)C(=O)N[C@@H](C)C(=O)N[C@@H](Cc1c[nH]c2ccccc12)C(=O)N[C@@H](CC(C)C)C(=O)N[C@@H](CCSC)C(=O)N[C@@H](CC(=O)O)C(=O)N[C@H](C(N)=O)[C@@H](C)O
- Glucagon antagonism IC50 (inhibit 0.2-0.8 nM glucagon) [9]: 2150 nM
- GLP-1 agonism EC50 [10]: 0.017 nM

Binder: [PhLac]TSDYSKYLDERRAKDFVQWLMDK([Glu-C16 fatty acid])-NH2 (lactam 11-15) [[PLA6, E16K20(lactam), D28, K29(EC16FA)]G(6-29)]
- Glucagon antagonism IC50 (inhibit 0.4 nM glucagon) [7]: 386 nM
- GLP-1 agonism EC50 [8]: 1410 nM

Binder: [PhLac](C16 fatty acid)TSDYSKYLDERRAKDFVQWLMDT-NH2 (lactam 11-15) [[C16FA-O-PLA6, E16K20(lactam),D28]G(6-29)]
- Glucagon antagonism IC50 (inhibit 0.4 nM glucagon) [7]: 338 nM
- GLP-1 agonism EC50 [8]: 45.7 nM

B4: [(CSA-1)^9]Glucagon(aa6-29)-NH2 (peptide)
peptide: FTS[CSA‑1]YSKYLDSRRAQDFVQWLMNT-NH2
modifications: N-terminus assumed
SMILES: CSCC[C@H](NC(=O)[C@H](CC(C)C)NC(=O)[C@H](Cc1c[nH]c2ccccc12)NC(=O)[C@H](CCC(N)=O)NC(=O)[C@@H](NC(=O)[C@H](Cc1ccccc1)NC(=O)[C@H](CC(=O)O)NC(=O)[C@H](CCC(N)=O)NC(=O)[C@H](C)NC(=O)[C@H](CCCNC(=N)N)NC(=O)[C@H](CCCNC(=N)N)NC(=O)[C@H](CO)NC(=O)[C@H](CC(=O)O)NC(=O)[C@H](CC(C)C)NC(=O)[C@H](Cc1ccc(O)cc1)NC(=O)[C@H](CCCCN)NC(=O)[C@H](CO)NC(=O)[C@H](Cc1ccc(O)cc1)NC(=O)[C@H](CSCC(=O)O)NC(=O)[C@H](CO)NC(=O)[C@@H](NC(=O)[C@@H](N)Cc1ccccc1)[C@@H](C)O)C(C)C)C(=O)N[C@@H](CC(N)=O)C(=O)N[C@H](C(N)=O)[C@@H](C)O
notes: also called [C^9(SCH2COOH)]Glucagon(aa6-29)-NH2; peptide no; 13
- cAMP (I/A)50 inhibition index [3]: 506
- cAMP pA2 [3]: 6.68
- cAMP IC50 [4]: 101 nM
- cAMP pA2 [4]: 6.68
- IC50 [5]: 107 nM
- IC50 [6]: 107 nM

Binder: [PhLac]TSDYSKYLDERRAKDFVK([3‑aminoprop‑1‑ynyl‑benzoic acid-Mpa-PEG 20 kDa])WLMDT-NH2 (lactam 11-15) [[PLA6,E16K20(Lactam), K24(rigid-S-20 kDa)]G(6-29)]
- Glucagon antagonism IC50 (inhibit 0.2-0.8 nM glucagon) [1]: 393 to 620 nM
- GLP-1 agonism EC50 [2]: 1360 to 2680 nM

Binder: FTSDYSKYLDSRRAQDFVQWLMNT-NH2 (also called peptide no; 15) [Glucagon(aa6-29)-NH2]
- cAMP (I/A)50 inhibition index [3]: 1730
- cAMP pA2 [3]: 6.94
- cAMP IC50 [4]: 346 nM
- cAMP pA2 [4]: 6.94
- IC50 [5]: 1890 nM
- IC50 [6]: 1670 nM

B5: [Lys^9]Glucagon(aa6-29)-NH2 (peptide)
peptide: FTSKYSKYLDSRRAQDFVQWLMNT-NH2
notes: also called [K^9]Glucagon(aa6-29)-NH2; peptide no; 16
- cAMP (I/A)50 inhibition index [3]: 1990
- cAMP pA2 [3]: 6.58
- cAMP IC50 [4]: 398 nM
- cAMP pA2 [4]: 6.58
- IC50 [5]: 5780 nM
- IC50 [6]: 3240 nM

Binder: [PhLac]TSDYSKYLDERRAKDFVK([Mpa-PEG 20 kDa″])WLMDT-NH2 (lactam 11-15) [[PLA6, E16K20(Lactam), K24(COCH2CH2S-20 kDa)] G(6-29)]
- Glucagon antagonism IC50 (inhibit 0.2-0.8 nM glucagon) [1]: 300 to 400 nM
- GLP-1 agonism EC50 [2]: 16 to 20 nM

B6: [A2E3, E9, E16K20(Lactam), GLP(23-32)]G(2-29) (peptide)
peptide: AEGTFTSEYSKYLDEQAAKEFIAWLMDT-NH2
modifications: lactam 15-19; N-terminus assumed
SMILES: CC[C@H](C)[C@H](NC(=O)[C@H](Cc1ccccc1)NC(=O)[C@H](CCC(=O)O)NC(=O)[C@@H]1CCCCNC(=O)CC[C@H](NC(=O)[C@H](CC(=O)O)NC(=O)[C@H](CC(C)C)NC(=O)[C@H](Cc2ccc(O)cc2)NC(=O)[C@H](CCCCN)NC(=O)[C@H](CO)NC(=O)[C@H](Cc2ccc(O)cc2)NC(=O)[C@H](CCC(=O)O)NC(=O)[C@H](CO)NC(=O)[C@@H](NC(=O)[C@H](Cc2ccccc2)NC(=O)[C@@H](NC(=O)CNC(=O)[C@H](CCC(=O)O)NC(=O)[C@H](C)N)[C@@H](C)O)[C@@H](C)O)C(=O)N[C@@H](CCC(N)=O)C(=O)N[C@@H](C)C(=O)N[C@@H](C)C(=O)N1)C(=O)N[C@@H](C)C(=O)N[C@@H](Cc1c[nH]c2ccccc12)C(=O)N[C@@H](CC(C)C)C(=O)N[C@@H](CCSC)C(=O)N[C@@H](CC(=O)O)C(=O)N[C@H](C(N)=O)[C@@H](C)O
- Glucagon antagonism IC50 (inhibit 0.2-0.8 nM glucagon) [9]: 423 nM
- GLP-1 agonism EC50 [10]: 9.8 nM

Binder: [PhLac]TSDK([Glu-C16 fatty acid])SKYLDERRAKDFVQWLMDT-NH2 (lactam 11-15) [[PLA6, K10(EC16FA), E16K20(lactam),D28]G(6-29)]
- Glucagon antagonism IC50 (inhibit 0.4 nM glucagon) [7]: 31.1 nM
- GLP-1 agonism EC50 [8]: 129 nM

Binder: LTFTSEYSKYLDSRRAQDFVQWLMNT-NH2 (also called peptide no) [[Leu^4, Glu^9]Glucagon(aa4-29)-NH2]
- IC50 [5]: 36.4 nM

Binder: [PhLac]TSDYSKYLDERRAK([Glu-C16 fatty acid])DFVQWLMDT-NH2 [[PLA6, E16, K20(EC16FA), D28]G(6-29)]
- Glucagon antagonism IC50 (inhibit 0.4 nM glucagon) [7]: 576 nM
- GLP-1 agonism EC50 [8]: 1290 nM
